Results: patent US9266964

What was measured:
human plasma kallikrein = target: T1, human plasma kallikrein (human, UniProt P03952 20-390; P03952 391-638); assay: Ki,app as an IgG, steady state enzyme kinetics, inhibition of human pKal
T1 construct: two disulfide linked chains; also called pKal; human pKal

[1] = target: T2, pKal catalytic domain Mutant 1 (human, UniProt P03952 391-638, limits assumed); assay: apparent Ki (Ki,app), enzyme inhibition, pKal catalytic domain Mutant 1
T2 construct: domain: catalytic domain; Expressed in Pichia pastoris, purified by IMAC; not shown: His tag fusion
Procedure: (§1) Apparent Inhibition constants (K_{i,app} values) were measured by pre-incubating enzyme and inhibitor solutions prior to initiating the reactions with substrate. Enzyme and inhibitor were pre-incubated for 2 hours at 30° C. in a 96-well plate by adding 10 μL of a 10× enzyme solution and 10 μL of 10× inhibitor solutions to 70 μL of reaction buffer. Reactions were initiated by the addition of 10 μL of a 10× concentrated stock of substrate, and were monitored at 30° C. in a fluorescence plate reader with the excitation and emission wavelengths set at 360 nm/460 nm, respectively. Kinetic data were acquired by the increase in fluorescence, and initial rates for each condition were plotted against the total inhibitor concentration. The data was fit to the following equation for tight binding inhibitors: […]

[2] = target: T3, pKal catalytic domain Mutant 2 (human, UniProt P03952 391-638, limits assumed); assay: apparent Ki (Ki,app), enzyme inhibition, pKal catalytic domain Mutant 2
T3 construct: domain: catalytic domain; Expressed in Pichia pastoris, purified by IMAC; not shown: His tag fusion
Procedure: as §1

[3] = target: T4, wild type pKal catalytic domain (human, UniProt P03952 391-638, limits assumed); assay: apparent Ki (Ki,app), enzyme inhibition, wild type pKal catalytic domain
T4 construct: domain: catalytic domain; also called WT cat; Domain; not shown: His tag fusion
Procedure: as §1

[4] = target: T5, human plasma kallikrein (full length, active) (human, UniProt P03952 20-390; P03952 391-638); assay: Ki,app: enzyme inhibition, fluorescent substrate, 2 h pre-incubation at 30 C, tight-binding fit
T5 construct: two disulfide linked polypeptides; also called Full length pKal; pKal
T5 sequence (P03952 20-390, chain 1 of 2): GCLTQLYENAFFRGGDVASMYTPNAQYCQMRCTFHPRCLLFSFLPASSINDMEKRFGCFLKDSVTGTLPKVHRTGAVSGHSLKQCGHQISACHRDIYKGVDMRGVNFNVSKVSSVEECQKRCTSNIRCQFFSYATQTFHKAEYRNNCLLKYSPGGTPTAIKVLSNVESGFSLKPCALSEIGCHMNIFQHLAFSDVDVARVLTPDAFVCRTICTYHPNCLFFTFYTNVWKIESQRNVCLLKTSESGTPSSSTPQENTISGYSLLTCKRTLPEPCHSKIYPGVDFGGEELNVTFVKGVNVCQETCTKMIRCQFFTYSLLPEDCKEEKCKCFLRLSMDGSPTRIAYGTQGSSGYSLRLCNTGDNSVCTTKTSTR
T5 sequence (P03952 391-638, chain 2 of 2): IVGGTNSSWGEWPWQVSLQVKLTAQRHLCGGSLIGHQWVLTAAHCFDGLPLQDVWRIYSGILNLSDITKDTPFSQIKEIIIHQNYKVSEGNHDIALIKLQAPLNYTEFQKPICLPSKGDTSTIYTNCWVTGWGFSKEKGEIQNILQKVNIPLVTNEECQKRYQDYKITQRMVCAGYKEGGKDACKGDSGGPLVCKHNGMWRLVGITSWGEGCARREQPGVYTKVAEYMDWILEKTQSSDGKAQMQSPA
Procedure: as §1

[5] = target: T6, wild type pKal catalytic domain (human, UniProt P03952 391-638, limits assumed); assay: as above
T6 construct: domain: catalytic domain; The expression in Pichia pastoris with a His tag and IMAC purification is told of the mutants; also called WT cat; Domain; not shown: His tag fusion
Procedure: as §1

[6] = target: T7, pKal catalytic domain Mutant 1 (human, UniProt P03952 391-638, limits assumed); assay: as above
T7 construct: domain: catalytic domain; Expressed in Pichia pastoris, purified by IMAC; not shown: His tag fusion
Procedure: as §1

[7] = target: T8, pKal catalytic domain Mutant 2 (human, UniProt P03952 391-638, limits assumed); assay: as above
T8 construct: domain: catalytic domain; Expressed in Pichia pastoris, purified by IMAC; not shown: His tag fusion
Procedure: as §1

T1 sequence (P03952 20-390, chain 1 of 2): as the sequence (P03952 20-390, chain 1 of 2) above
T1 sequence (P03952 391-638, chain 2 of 2): as the sequence (P03952 391-638, chain 2 of 2) above

Row | Binder | Ki (human plasma kallikrein) | Ki [1] | Ki [2] | Ki [3] | Ki [4] | Ki [5] | Ki [6] | Ki [7]
1 | X67-H04 (IgG) (antibody, V domains shown, printed HC runs into CH1; also called 559A-X67-H04) VH: EVQLLESGGGLVQPGGSLRLSCAASGFTFSAYSMIWVRQAPGKGLEWVSYIRPSGGRTTYADSVKGRFTISRDNSKNTLYLQMNSLRAEDTAVYYCARGGLLLWERELKSNYFDYWGQGTLVTVSS VL: DIQMTQSPSSLSAFVGDRVTITCRASQPIDNYLNWYHQKPGKAPKLLIYAASRLQSGVPSRLSGSGFGTDFTLTISSLQPEDFGNYYCQQSYTVPYTFGGGTKVEIR | 3.6 nM | – | – | – | – | – | – | –
2 | DX-2922 (antibody, V domains shown, also called X101-A01; 559A-X0101-A01) VH: EVQLLESGGGLVQPGGSLRLSCAASGFTFSHYLMTWVRQAPGKGLEWVSYISPSGGHTIYADSVKGRFTISRDNSKNTLYLQMNSLRAEDTAVYYCARVARGIAARSRTSYFDYWGQGTLVTVSS VL: EIVLTQSPGTLSLSPGERATLSCRTSQFVNSNYLAWYQQKPGQAPRLLIYGASSRATGIPDRFSGSGSGTDFTLTISRLEPEDFAVYYCQQSSRTPWTFGQGTKVEIK | – | 14 nM | 20 nM | 0.22 nM | – | – | – | –
3 | DX-2922 (antibody, V domains shown, Germlined IgG produced in CHO cells; only the variable domains are printed; also called X101-A01; 559A-X0101-A01) VH: EVQLLESGGGLVQPGGSLRLSCAASGFTFSHYLMTWVRQAPGKGLEWVSYISPSGGHTIYADSVKGRFTISRDNSKNTLYLQMNSLRAEDTAVYYCARVARGIAARSRTSYFDYWGQGTLVTVSS VL: EIVLTQSPGTLSLSPGERATLSCRTSQFVNSNYLAWYQQKPGQAPRLLIYGASSRATGIPDRFSGSGSGTDFTLTISRLEPEDFAVYYCQQSSRTPWTFGQGTKVEIK | – | – | – | – | 0.2 nM | 0.22 nM | 14 nM | 20 nM
4 | M29-D09 (Fab, V domains shown, also called 559A-M29-D09 (sFab); 559A-M0029-D09) VH: EVQLLESGGGLVQPGGSLRLSCAASGFTFSWYTMVWVRQAPGKGLEWVSYIYPSGGATFYADSVKGRFTISRDNSKNTLYLQMNSLRAEDTAVYYCAMGSYDYIWGFYSDHWGQGTLVTVSS VL: QSALTQPPTVSVSPGQTARITCSGNKLGDKYVAWYQQKPGQSPMLVIYQDTKRPSRVSERFSGSNSANTATLSISGTQALDEADYYCQAWDSSIVIFGGGTRLTVL | – | – | – | – | 0.7 nM | 0.24 nM | 0.27 nM | 0.34 nM
5 | X115-F02 (Fab, V domains shown, also called 559A-X115-F02; 559A-X0115-F02) VH: EVQLLESGGGLVQPGGSLRLSCAASGFTFSHYIMMWVRQAPGKGLEWVSGIYSSGGITVYADSVKGRFTISRDNSKNTLYLQMNSLRAEDTAVYYCAYRRIGVPRRDEFDIWGQGTMVTVSS VL: DIQMTQSPSTLSASVGDRVTITCRASQSISSWLAWYQQKPGKAPKLLIYKASTLESGVPSRFSGSGSGTEFTLTISSLQPDDFATYYCQQYNTYWTFGQGTKVEIK [X115-F02, listing 1 of 2 here] | – | 0.14 nM | 5.9 nM | 0.09 nM | – | – | – | –
6 | X115-F02 (Fab, V domains shown, also called 559A-X115-F02; 559A-X0115-F02) VH: EVQLLESGGGLVQPGGSLRLSCAASGFTFSHYIMMWVRQAPGKGLEWVSGIYSSGGITVYADSVKGRFTISRDNSKNTLYLQMNSLRAEDTAVYYCAYRRIGVPRRDEFDIWGQGTMVTVSS VL: DIQMTQSPSTLSASVGDRVTITCRASQSISSWLAWYQQKPGKAPKLLIYKASTLESGVPSRFSGSGSGTEFTLTISSLQPDDFATYYCQQYNTYWTFGQGTKVEIK [X115-F02, listing 2 of 2 here] | – | – | – | – | 0.089 nM | 0.09 nM | 0.14 nM | 5.9 nM

Continued, values first:

Row | Ki (human plasma kallikrein) | Ki [1] | Ki [2] | Ki [3] | Ki [4] | Ki [5] | Ki [6] | Ki [7] | Binder
7 | – | – | – | – | 0.33 nM | – | 4.7 nM | 47 nM | X115-B07 (antibody, V domains shown, only variable domains given; also called 559A-X115-B07; 559A-X0115-B07) VH: EVQLLESGGGLVQPGGSLRLSCAASGFTFSHYLMTWVRQAPGKGLEWVSYISPSGGHTIYADSVKGRFTISRDNSKNTLYLQMNSLRAEDTAVYYCAMVGQGIRGRSRTSYFAQWGQGTLVTVSS VL: EIVLTQSPGTLSLSPGERATLSCRTSQFVNSNYLAWYQQKPGQAPRLLIYGASSRATGIPDRFSGSGSGTDFTLTISRLEPEDFAVYYCQQSSRTPWTFGQGTKVEIK
8 | – | 4.7 nM | 47 nM | 0.13 nM | – | – | – | – | X115-B07 (antibody, V domains shown, also called 559A-X115-B07; 559A-X0115-B07) VH: EVQLLESGGGLVQPGGSLRLSCAASGFTFSHYLMTWVRQAPGKGLEWVSYISPSGGHTIYADSVKGRFTISRDNSKNTLYLQMNSLRAEDTAVYYCAMVGQGIRGRSRTSYFAQWGQGTLVTVSS VL: EIVLTQSPGTLSLSPGERATLSCRTSQFVNSNYLAWYQQKPGQAPRLLIYGASSRATGIPDRFSGSGSGTDFTLTISRLEPEDFAVYYCQQSSRTPWTFGQGTKVEIK
9 | – | – | – | – | 0.16 nM | 0.16 nM | 0.23 nM | 3.7 nM | X115-A03 (antibody, V domains shown, only variable domains given; also called 559A-X115-A03; 559A-X0115-A03) VH: EVQLLESGGGLVQPGGSLRLSCAASGFTFSHYIMMWVRQAPGKGLEWVSGIYSSGGITVYADSVKGRFTISRDNSKNTLYLQMNSLRAEDTAVYYCAWRRIGVPRRDSFDMWGQGTMVTVSS VL: DIQMTQSPSTLSASVGDRVTITCRASQSISSWLAWYQQKPGKAPKLLIYKASTLESGVPSRFSGSGSGTEFTLTISSLQPDDFATYYCQQYNTYWTFGQGTKVEIK
10 | – | 0.23 nM | 3.7 nM | 0.16 nM | – | – | – | – | X115-A03 (antibody, V domains shown, also called 559A-X115-A03; 559A-X0115-A03) VH: EVQLLESGGGLVQPGGSLRLSCAASGFTFSHYIMMWVRQAPGKGLEWVSGIYSSGGITVYADSVKGRFTISRDNSKNTLYLQMNSLRAEDTAVYYCAWRRIGVPRRDSFDMWGQGTMVTVSS VL: DIQMTQSPSTLSASVGDRVTITCRASQSISSWLAWYQQKPGKAPKLLIYKASTLESGVPSRFSGSGSGTEFTLTISSLQPDDFATYYCQQYNTYWTFGQGTKVEIK
11 | – | – | – | – | 0.18 nM | 0.18 nM | 0.26 nM | 2.5 nM | X115-D01 (antibody, V domains shown, only variable domains given; also called 559A-X115-D01; 559A-X0115-D01) VH: EVQLLESGGGLVQPGGSLRLSCAASGFTFSIYSMHWVRQAPGKGLEWVSSIYPSRGMTWYADSVKGRFTISRDNSKNTLYLQMNSLRAEDTAVYYCAYRRTGIPRRDAFDIWGQGTMVTVSS VL: DIQMTQSPSTLSASVGDRVTITCRASQSISSWLAWYQQKPGKAPKLLIYKASTLESGVPSRFSGSGSGTEFTLTISSLQPDDFATYYCQQYNTYWTFGQGTKVEIK
12 | – | 0.26 nM | 2.5 nM | 0.18 nM | – | – | – | – | X115-D01 (antibody, V domains shown, also called 559A-X115-D01; 559A-X0115-D01) VH: EVQLLESGGGLVQPGGSLRLSCAASGFTFSIYSMHWVRQAPGKGLEWVSSIYPSRGMTWYADSVKGRFTISRDNSKNTLYLQMNSLRAEDTAVYYCAYRRTGIPRRDAFDIWGQGTMVTVSS VL: DIQMTQSPSTLSASVGDRVTITCRASQSISSWLAWYQQKPGKAPKLLIYKASTLESGVPSRFSGSGSGTEFTLTISSLQPDDFATYYCQQYNTYWTFGQGTKVEIK
13 | – | – | – | – | 0.6 nM | 0.3 nM | 0.4 nM | 2.2 nM | X115-G04 (antibody, V domains shown, only variable domains given; also called 559A-X115-G04; 559A-X0115-G04) VH: EVQLLESGGGLVQPGGSLRLSCAASGFTFSHYIMMWVRQAPGKGLEWVSGIYSSGGITVYADSVKGRFTISRDNSKNTLYLQMNSLRAEDTAVYYCAYRRTGVPRRDEFDIWGQGTMVTVSS VL: DIQMTQSPSTLSASVGDRVTITCRASQSISSWLAWYQQKPGKAPKLLIYKASTLESGVPSRFSGSGSGTEFTLTISSLQPDDFATYYCQQYNTYWTFGQGTKVEIK
14 | – | 0.4 nM | 2.2 nM | 0.3 nM | – | – | – | – | X115-G04 (antibody, V domains shown, also called 559A-X115-G04; 559A-X0115-G04) VH: EVQLLESGGGLVQPGGSLRLSCAASGFTFSHYIMMWVRQAPGKGLEWVSGIYSSGGITVYADSVKGRFTISRDNSKNTLYLQMNSLRAEDTAVYYCAYRRTGVPRRDEFDIWGQGTMVTVSS VL: DIQMTQSPSTLSASVGDRVTITCRASQSISSWLAWYQQKPGKAPKLLIYKASTLESGVPSRFSGSGSGTEFTLTISSLQPDDFATYYCQQYNTYWTFGQGTKVEIK
